The nanobody polyreactivity screen of Harvey et al. (2022)

Assay: yeast display, Sf9 membrane polyspecificity reagent, FACS + sequencing; frameworks hold sequencing errors
How it was run: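 Sorting gates, low and high (top ~1%), were placed on anti-HA fluorescence to track expression and on streptavidin fluorescence to track reagent binding. A clone's polyreactivity label is taken from the gate it came out of. The reagent was 10% biotinylated, detergent-solubilized Sf9 membrane, applied for 1 hour at 4 °C to galactose-induced yeast display cells.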

Sequence	polyreactivity (PSR sort gate)
QVQLVESGGCLVQAGGSLGLSCAASGFSFLEYAKGWYRQAPGKERELVAVISRRGGRTYYADSVKGRFTISRDNAKITVFLQMNSLNPEDTEVYYWNARISGCVWHYDYWGQGTQVTVSS	high polyreactivity
QVQLVESGGCLVQAGGSLPLSCAASGIIFAQYVMGWYIQATGKESELVAAIRTSGGRTYYADSVKGRFTISRDNSKNTVYLQMNSLKPEDTAVYYCAAYGKPTFRSVDYWGQGTQVTVSS	high polyreactivity
QVQLVESGGCLVQAGGSLRLICAASGIIFWGYFMGWYRQAPAKERELVAAISRGGRTYYADSVKGRFTISRDNAKNTVYLQMNSLKPEDTAVDYCAARWGRSYLPQPFQFEYDYWGQGTQVTVSS	high polyreactivity
QVQLVESGGCLVQAGGSLRLRGAASGRIFGYYAMGWYRQAPGKEWELVAAISRGGSTNYADSVKGRFTISRDNAKNTVYLQMNSLKPEDTAVYYCAAVQRTHPRYYYWGQGTQVTVSS	high polyreactivity
QVQLVESGGCLVQAGGSLRLSCAASGFIFRQYAMGWYRQAPGKERELVAAISTGGGRTYYADSVKGRFTISRDNAKNTVYLQMNSLKPEDTAVYYCAAGYPYSYRDYYYWGQGTQVTVSS	high polyreactivity
QVQLVESGGCLVQAGGSLRLSCAASGFIFRWYAMGWYRQAPGKERELVAAISLGGSTNYADSVKGRFTISRDNAKNTVYLQMNSLKPEDTAVYYCNARYVSYSGRYVIGQYVKYDYWGKGTQVTVSS	high polyreactivity
QVQLVESGGCLVQAGGSLRLSCAASGFIFWDYAMGWYRQAPGKERELVAAISDSGGDKYYADSVKGRFTISRDNAKNTVYLQMNSLKPEDTAVYYCAADVELWVFRGQQYDYWGQGTQVTVSS	low polyreactivity
QVQLVESGGCLVQAGGSLRLSCAASGFTFHDYAMGWYRQAPGKERELVAAITKSGGRTYYADSVKGRFTISRDNAQNTVYLQMNSLKPVDTAVYYRAAKSYWGQVTQVTVSS	high polyreactivity
QVQLVESGGCLVQAGGSLRLSCAASGFTFHNNVMGWYRQAPGKDRELVATISKSGGSTYYADSEKGRFTISRDNAKNTVYLQMNSLKPEDTAVYYCDRRYRYYGRYGYWGQGTQVTVSS	high polyreactivity
QVQLVESGGCLVQAGGSLRLSCAASGGTFRGYAMGWYRQAPGKETELVAASSTSGSRTSYADSVKGRFTISRDNAKNTVYLQMNSLKPEDNAVYYCNADPIHGVYSRFRLGGYWGQGTQVTVSS	high polyreactivity
QVQLVESGGCLVQAGGSLRLSCAASGITFKYYVMGWYRQAPGKEREFVAAISWGGGSPYYADSVKGRCTISRDNAKNTVYVQMNSLKPEDTAVYYCAATSAYGRYRYYYWGQGTQVTVSS	high polyreactivity
QVQLVESGGCLVQAGGSLRLSCAASGLIFYRYAMGWYRQAPGKERELVAAISWSGGTTYYADSVKGRFTISRDNAKNSVYLQMNSLKPEDTAVYYCAADAVYYHFDYWGQGTQVTVSS	high polyreactivity
QVQLVESGGCLVQAGGSLRLSCAASGLTFGSNAMGWYRQAPGKERELVAAISSTGSTYYADSVKGRFTISRDNAKNTVYLQMNSLKPEDTAVYYCAAYDYWGQGTQVTVSS	low polyreactivity
QVQLVESGGCLVQAGGSLRLSCAASGNTFWVNSMGWYRQAPGKERELVAGITSSGDSTSYADSVKGRFTISRDNAKNTVYLQMNSLKPEDTAVYYCAADVGGFWYTEYYWGQGTQVTVSS	high polyreactivity
QVQLVESGGCLVQAGGSLRLSCAASGRIFPGYAMGWYRQAPGKESEFVAAITASGGTTYYADSVKGRFTISRDNAKNTVYLQMNCLKPEDTAVYYCAKYRYTVAGYNYWGQGTQVTVSS	high polyreactivity
QVQLVESGGCLVQAGGSLRLSCAASGRIFQAYAMGWYRQAPGKERELVAAINRSGNTNYADSVKGRFTISRDNAKNTVYLQMNSLKPEDTAVYYCAADAVSFSYFGYQRMDYWGQGTQVTVSS	low polyreactivity
QVQLVESGGCLVQAGGSLRLSCAASGRIFQSYAMGWYRQAPGKESELVAAISQSGGSTYYADSVQGRFTISRDNAKNTVYVQMNSLKPEDTAVYYCAARSRWYKRYDYWGQGTQVTVSS	low polyreactivity
QVQLVESGGCLVQAGGSLRLSCAASGRIFRDKAMGWYRQAPGKEREFVARITISTGTTYYADSVKGRFTISRDNAKNTGYLQKNSLKPADTAVYYCAALYTDSYLTSPVSYRYDYWGQGTQVSVSS	low polyreactivity
QVQLVESGGCLVQAGGSLRLSCAASGRIFYRYAMGWSRQAPGKVRELVATISWSGGSTYYAHSVKGRFTISRDNAKYTVYLQLNSLKPEDTAVYYCNAAYGNVSRVYYLIEHDYWGQGTQVTVSS	high polyreactivity
QVQLVESGGCLVQAGGSLRLSCAASGRILEYYTMGWYRQAPGKERELVAGITSGGTTNYADSVKGRFTISRDNAKNTVYLQMNSLKPEDTAVYYCALKQSYYFGSYFYGHEYYYWGQGTQVTVSS	low polyreactivity
QVQLVESGGCLVQAGGSLRLSCAASGRILLHNAMGWYRQAPGKERELVAAITNGGSTYYADSVKGRFTISRDNAKNTVYLQMNSLKPEDTAVYYCAARTRLAQYSRGRYRYDYWGQGTQVTVSS	high polyreactivity
QVQLVESGGCLVQAGGSLRLSCAASGRISVFYAMGWYRQAPGKERELVAAITRSGTTKYADSVKGRFTISRDNAKNTVYLQMNSLKPEDTAVYYCAVRRYRARFGYWGKGTQVTVSS	high polyreactivity

Sequence	polyreactivity (PSR sort gate)
QVQLVESGGCLVQAGGSLRLSCAASGRIYIGYAMGWYRQAPGKERELVAAITTGGRTSYAVSVKGRFTISRDNAKNTVYLQMNSLKPVDTAVYYCAKRKSYNFPTRRPYYRRYYYWGQGTQVTVSS	high polyreactivity
QVQLVESGGCLVQAGGSLRLSCAASGRTFNYKAMGWYRQAPGKERELVAAINYSGDSTYYADSVKGRFTISRDNAKNTVYLQMNSLQPEDTAVYYCNADDYWYYYRYGYWGQGTQVTVSS	low polyreactivity
QVQLVESGGCLVQAGGSLRLSCAASGRTFSIYAMGWYRQAPGKEWELVASINGSGGSTYYADSVKGRFTISRDIAMNTVYLQMNSLKPEDTAVYYCAARASPRFNYWGQGSQVTVSS	high polyreactivity
QVQLVESGGCLVQAGGSLRLSCAASGRTFSLYAMGWYRQEPGQERELVASITDSTGGSTYYADSVKGRFTLSRDNAKNTVYLQMNSLKPEDTAVYYCAAQDYQYSDYQWWFGYWGLGTQVTVSS	low polyreactivity
QVQLVESGGCLVQAGGSLRLSCAASGRTFYGYAMGWYRQAPGKERELVATITSGGSTNYADSVKGRFTISRDNAKNTVYLQMNSLKPEDTAVYYCAATTRLYGRHRRYNYWGQGTQVTVSS	high polyreactivity
QVQLVESGGCLVQAGGSLRLSCAASGRTFYSYAMGWYRQAPGKERELVAAISYTGASTFYADSVKGRFTISRDNAKNTVYLQMNSLKPEDTAVYYCAARKVRFAVDYWGQGTQVTVSS	high polyreactivity
QVQLVESGGCLVQAGGSLRLSCAASGRTIRVYAMGWYRQAPGKARELVASITRAGGTYADSVKGRFTISRDIAKNPDYLQMNSLKPEDTAVYFCNARWQRSTGGRQRYDYWGQGTQVTVSS	high polyreactivity
QVQLVESGGCLVQAGGSLRLSCAASGRTYQNNAMGWYRQAPGKERELVAAISRSGASTYYADSVKGRFTISRDNAKNTVYLQMNSLKPEDTAVYYCAARYPRTAYDYWGQGTQVTVSS	low polyreactivity
QVQLVESGGCLVQAGGSLRLSCAASGSIFDYNAMGWYRQAPGKEREFVAAISSSAGSTYYADSVKGRFTISRDNAKNTVYLQMNSLKPEDTAVYDCAADWYDFSFPYYEYEYWGQGTQVTVSS	low polyreactivity
QVQLVESGGCLVQAGGSLRLSCAASGSIFDYNAMGWYRQAPGKEREFVAAISSSAGSTYYADSVKGRFTISRDNAKNTVYLQMNSLKPEDTAVYYCAADWYDFSFPYYEYEFWGQGTQVTVSS	low polyreactivity
QVQLVESGGCLVQAGGSLRLSCAASGSIFEYYAMAWSRQAPGKERELVAAINSGDITKYADSVKGRFTISRDNAKNTVYLQMNSLKPEDTAVYYCAKRLSSREYYWGQGSQVTVSS	high polyreactivity
QVQLVESGGCLVQAGGSLRLSCAASGSIFSGNAMGWYRQAPGKERELVAAISRSGGSKYYADSVKGRFTISRDNAKNTVYLQMNSLKPEDTAVYYFAAYRTHGPPRAIRFDYWGQGTQVTVSS	high polyreactivity
QVQLVESGGCLVQAGGSLRLSCAASGSIFSLYAMGWYRQAPGKEWEFVASISRSGGITYYADSVKGRFTISRDNAKNTVYLQMNSLKPEDTAVYYCAAVGWVSYRRYDYWGPGTQVTVSS	high polyreactivity
QVQLVESGGCLVQAGGSLRLSCAASGSIFSRNVMGWYRKAPGKERELVAAITGSGGRTYYADSVKGRFTISRDNAKNTVYLQMNSLKPEDTAVYYCAKSRPGTYDYWGPGTQVTVSS	high polyreactivity
QVQLVESGGCLVQAGGSLRLSCAASGSIGTYVMGWYRQAPGKQRELVAAITSNGGRKYYADSVKGRFTISRDNAKNTVYLQMNSLKPEDTAVYYCATVNYSPRYTMYYWGQGTQVTVSS	high polyreactivity
QVQLVESGGCLVQAGGSLRLSCAASGSIINYYAMGWFRQAPGKERELVAGITTSGGSTYYADSVKGRFTISRDNAKHTVDLQMNSLKPEDTAVYYCAAYDYSSSTYFLDDYWGQGTQVTVSS	low polyreactivity
QVQLVESGGCLVQAGGSLRLSCAASGSILATNVMGWYRQSPGKESQFVAAISSGGSTNYADSVKGRFTISRDNAKYTVYLQMNSLKPEDTAVYYCATSSIWGSGRVRWVSYYYWGQGSQVTVSS	low polyreactivity
QVQLVESGGCLVQAGGSLRLSCAASGSLFKPYAMGWYIQAPGKEREFVAAINRGGTSTYYADSVKGRFTIARDNAKNTVFLQMKSLKPEDTAVYYCNAESPYYADGDTVRDDYWGQGTQVTVSS	low polyreactivity
QVQLVESGGCLVQAGGSLRLSCAASGSTFNKYAMGWYRQAPGKERELVAAIRSNGVRTYYADSVKGRFSISRDNAKNTVYLQMNSLKPEDTPVYYCNKRYTYRYDYWGQGTQVCVSS	high polyreactivity
QVQLVESGGCLVQAGGSLRLSCAASGSTFNYYAMGWYRQAPGKERELVAAISSSGGRTYYADSVKGRFTISRDNAKNTVYLQMNSLKPEDTAVYYCNARTYSYRGYNYWGQGTQVTVSS	high polyreactivity
QVQLVESGGCLVQAGGSLRLSCAASGSTFPIYAMGWYRQAPGKERELVARITWNGGRTYYADSVKGRFTISRDNAKNTVYLQMNSLKPEDTAVYYCNARRYLRGYGYGYWGQGTQVTVSS	high polyreactivity
